Assay results as given in publication PMC10708208 (Science Advances, 2023).
Read-outs that look alike come from different tables or passages of the source.

B1: SipA^α (SipA_(497–669)) (domain or fragment)
chain: NKAGTTDNDNSQTDKTGPFSGLKFKQNSFLSTVPSVTNMHSMHFDARETFLGVIRKALEPDTSTPFPVRRAFDGLRAEILPNDTIKSAALKAQCSDIDKHPELKAKMETLKEVITHHPQKEKLAEIALQFAREAGLTRLKGETDYVLSNVLDGLIGDGSWRAGPAYESYLNKP
B2: SipA^β (SipA_(426–685)) (domain or fragment)
chain: GETTSFDEVDGVTSKSIIGKPVQATVHGVDDNKQQSQTAEIVNVKPLASQLAGVENVKTDTLQSDTTVITGNKAGTTDNDNSQTDKTGPFSGLKFKQNSFLSTVPSVTNMHSMHFDARETFLGVIRKALEPDTSTPFPVRRAFDGLRAEILPNDTIKSAALKAQCSDIDKHPELKAKMETLKEVITHHPQKEKLAEIALQFAREAGLTRLKGETDYVLSNVLDGLIGDGSWRAGPAYESYLNKPGVDRVITTVDGLHMQR

Tests used:
[1] = target: T1, F-actin (cryo-EM samples) ( (chicken and rabbit muscle …, UniProt P68139 1-377)); assay: cryo-EM structure
[2] = target: T1, F-actin (cryo-EM samples); assay: cryo-EM structure; remark: listed apart in the source

Binder	stoichiometry N [1]	stoichiometry N [2]
B1	0.5 SipA per actin subunit (molar ratio)	–
B2	–	0.5 SipA per actin subunit (molar ratio)
